Measurements published in US20230365653A1 (MABWELL SHANGHAI BIOSCIENCE, published 2023).
Blank lines part the entries; values can stand above or below the molecule they belong to.

Key:
[1] = target: recombinant human TGF-β 1 protein (Cat: CA59, Novoprotein Scientific Inc.) (human) (UniProt P01137); assay: BLI (Octet QKe), binder captured on AHC biosensor, 1:1 fit
[2] = target: T1, human TGF-β 2 (Cat: CJ79, Novoprotein Scientific Inc.) (human) (UniProt P61812); assay: ELISA, target coated at 1 µg/ml, HRP-anti-human Fc detection
T1 sequence (looked up): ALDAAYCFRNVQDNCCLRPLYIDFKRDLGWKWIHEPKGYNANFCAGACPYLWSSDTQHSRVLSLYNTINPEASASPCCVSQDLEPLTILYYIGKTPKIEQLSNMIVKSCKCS

[3] = target: T2, human TGF-β 3 (Cat: CJ44, Novoprotein Scientific Inc.) (human) (UniProt P10600); assay: as above
T2 sequence (looked up): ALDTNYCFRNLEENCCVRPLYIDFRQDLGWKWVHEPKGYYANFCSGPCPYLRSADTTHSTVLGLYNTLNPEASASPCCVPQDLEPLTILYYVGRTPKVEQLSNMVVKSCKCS

[4] = target: recombinant human TGF-β 1 protein (Cat: CA59, Novoprotein Scientific Inc.) (human) (UniProt P01137); assay: as above
[5] = target: T3, recombinant human PD-L1-his protein (Accession No.: NP_054862.1, 19 aa-238 aa) (human, UniProt Q9NZQ7 19-238); assay: BLI (Octet QKe), binder captured on AHC biosensor, analyte 60 nM, 1:1 fit
T3 construct: range 19-238; also called recombinant human PD-L1 extracellular domain protein; not shown: his tag
Excerpt: Antibody affinity was detected by an assay including capturing antibody Fc fragment with anti-human IgG Fc capture (AHC) biosensors on Octet QKe system instrument from Fortebio. […] The binding time was 300 s and the dissociation time was 300 s.

recombinant human TGF-β 1 protein (Cat: CA59, Novoprotein Scientific Inc.) (human), sequence (P01137 279-390 limits assumed): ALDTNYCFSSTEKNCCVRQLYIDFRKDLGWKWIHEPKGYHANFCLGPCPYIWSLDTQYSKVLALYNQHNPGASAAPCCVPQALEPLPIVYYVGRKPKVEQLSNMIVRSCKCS
T3 sequence (Q9NZQ7 19-238 limits assumed): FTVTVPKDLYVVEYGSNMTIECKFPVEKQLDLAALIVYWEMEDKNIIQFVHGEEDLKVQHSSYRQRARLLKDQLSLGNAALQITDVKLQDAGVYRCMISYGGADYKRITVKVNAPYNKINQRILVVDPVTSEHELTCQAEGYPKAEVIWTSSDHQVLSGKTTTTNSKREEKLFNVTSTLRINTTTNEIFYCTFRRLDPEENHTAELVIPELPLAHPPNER

Kd [1]: 2.81 nM
EC50 [2]: 18.2 nM
EC50 [3]: 0.981 nM
EC50 [4]: 0.472 nM
Molecule: recombinant protein M7824 (anti-human PD-L1 antibody/TGF-β RII fusion protein control)

Kd [5]: 0.433 nM
B1: PD-L1 antibody H182-MUT4 (antibody, human IgG1, kappa, V domains shown)
VH: EVQLVQSGAEVKKPGATVKISCKVSGFNIKDIYMHWVQQAPGKGLEWMGRIDPANANTKYDPKFQDRVTITADTSTNTAYMELSSLRSEDTAVYYCASGQLGPLGFDYWGQGTTVTVSS
VL: DIQMTQSPSSLSASVGDRVTITCRASQDISNYLNWYQQKPGKAPKLLLYYTSRLHSGVPSRFSGSGSGTDYTLTISSLQPEDFATYFCQQGAGRPYTFGGGTKVEIKR
notes: 25-30 for the anti-human PD-L1 antibody without naming H182-MUT4; also called MW22
